Data on eleven molecules can be found in US10562936B2, “Ligands for integrin αvβ6, synthesis and uses thereof” (Technische Universitat Munchen, priority 2015, dated 2020).

For test [1], the system named is human oral squamous cell carcinoma (OSCC) cell line HN (high integrin αvβ6). Nature of the test: Cell binding / fluorescence bioimaging of Cy5.5 conjugate on HN cells. In kind it is cell-based. The source says: The human oral squamous cell carcinoma (OSCC) cell line HN were purchased from the German Collection of Microorganisms and Cell Cultures, Braunschweig, Germany (DSMZ no. ACC 417). HN cells derived from a cervical lymph node metastasis of a highly aggressive and invasive OSCC of the soft palate.^[9] As control cells, we used the human ovarian cancer cell line OVMZ6 with low integrin αvβ6 and high integrin αvβ3 expression.^[10] All cells were cultivated in Dulbecco's Modified Eagle's Medium (DMEM) (Sigma-Aldrich, St. Louis, Mo., USA), supplemented with 10% (v/v) fetal calf serum (FCS) (Gibco, LifeTechnologies™, Carlsbad, Calif., USA).
HN and OVMZ6 cells were cultivated for 24 h on fibronectin-coated microchamber slides at a density of 25×10^3/well, thereafter fixed in 2% (w/v) PFA for 15 min at r.t. and washed in PBS. The Cy5.5-conjugated compound 18-Cy5.5, dissolved in PBS, 5% (v/v) dimethyl sulfoxide (DMSO), was applied at a final concentration of […] for 1 h at r.t., followed by 3 washes in PBS. […] As control peptide served the non-binding cycl(R^betaADfK) labelled via lysine side-chain NH2 group with Cy5.5 fluorescent dye. After the incubation period, cells were washed 6 times in PBS and slides mounted. Fluorescence signal intensity was detected by the microscope Zeiss LSM 700 (Zeiss) as described above.

The target in test [2] is integrin α5β1 (soluble integrin) (UniProt P08648). Nature of the test: solid-phase binding assay, internal standard; coated fibronectin, soluble α5β1.
integrin α5β1 (soluble integrin) (UniProt P08648), sequence (P08648 42-995, chain 1 of 2): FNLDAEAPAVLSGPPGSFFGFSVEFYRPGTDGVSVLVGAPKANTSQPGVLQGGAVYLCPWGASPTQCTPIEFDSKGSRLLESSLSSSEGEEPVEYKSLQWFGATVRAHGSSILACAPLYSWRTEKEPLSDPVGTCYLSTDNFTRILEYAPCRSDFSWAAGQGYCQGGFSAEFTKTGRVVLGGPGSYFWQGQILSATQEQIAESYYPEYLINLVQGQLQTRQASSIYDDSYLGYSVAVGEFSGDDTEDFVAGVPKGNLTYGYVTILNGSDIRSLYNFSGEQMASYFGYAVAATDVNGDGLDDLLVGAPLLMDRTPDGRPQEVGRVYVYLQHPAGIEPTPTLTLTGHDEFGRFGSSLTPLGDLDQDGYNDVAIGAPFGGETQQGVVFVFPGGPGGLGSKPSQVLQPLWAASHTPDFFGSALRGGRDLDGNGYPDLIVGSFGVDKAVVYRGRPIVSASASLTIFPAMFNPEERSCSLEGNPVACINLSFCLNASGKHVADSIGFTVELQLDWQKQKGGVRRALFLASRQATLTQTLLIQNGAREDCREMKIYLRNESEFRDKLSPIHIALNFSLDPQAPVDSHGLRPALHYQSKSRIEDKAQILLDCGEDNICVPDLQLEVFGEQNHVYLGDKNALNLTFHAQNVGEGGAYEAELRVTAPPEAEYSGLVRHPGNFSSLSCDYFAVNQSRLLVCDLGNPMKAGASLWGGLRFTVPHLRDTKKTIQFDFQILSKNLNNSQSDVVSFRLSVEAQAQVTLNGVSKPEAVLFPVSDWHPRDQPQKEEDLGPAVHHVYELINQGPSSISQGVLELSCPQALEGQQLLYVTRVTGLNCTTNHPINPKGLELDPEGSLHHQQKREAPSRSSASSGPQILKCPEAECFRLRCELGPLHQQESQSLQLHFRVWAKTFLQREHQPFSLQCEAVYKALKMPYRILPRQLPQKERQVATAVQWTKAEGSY
integrin α5β1 (soluble integrin) (UniProt P08648), sequence (P05556 21-728, chain 2 of 2, further chain): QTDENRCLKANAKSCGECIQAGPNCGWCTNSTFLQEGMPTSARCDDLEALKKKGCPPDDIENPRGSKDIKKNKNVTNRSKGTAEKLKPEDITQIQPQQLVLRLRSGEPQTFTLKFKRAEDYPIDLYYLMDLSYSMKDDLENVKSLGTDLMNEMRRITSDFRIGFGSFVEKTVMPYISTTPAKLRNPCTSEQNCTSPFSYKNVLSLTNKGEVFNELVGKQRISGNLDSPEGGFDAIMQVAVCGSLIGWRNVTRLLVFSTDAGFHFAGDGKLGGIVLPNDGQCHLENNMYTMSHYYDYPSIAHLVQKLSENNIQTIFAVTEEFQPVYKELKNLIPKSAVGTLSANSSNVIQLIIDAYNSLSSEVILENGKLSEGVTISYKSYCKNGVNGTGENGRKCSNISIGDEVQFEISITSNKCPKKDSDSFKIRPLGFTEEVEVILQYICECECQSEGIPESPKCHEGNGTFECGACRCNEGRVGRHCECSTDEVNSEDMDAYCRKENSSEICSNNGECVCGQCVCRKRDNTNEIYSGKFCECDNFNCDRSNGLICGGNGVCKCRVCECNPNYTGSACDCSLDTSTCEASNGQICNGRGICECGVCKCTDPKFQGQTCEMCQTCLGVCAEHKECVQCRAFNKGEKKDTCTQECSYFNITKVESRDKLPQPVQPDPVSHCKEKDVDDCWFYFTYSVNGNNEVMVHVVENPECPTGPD
Test [3] deals with T1, αvβ6 (Homo sapiens, UniProt P06756+P18564). The settings on record: from WO 01/05810; cited from earlier work.
Test [4] addresses T2, αvβ3 (Homo sapiens, UniProt P05106+P06756).
T2 construct: using coated extracellular matrix proteins and soluble integrins
The test can be described thus: Solid-phase integrin binding assay, αvβ3 (coated Vitronectin). The settings on record: solid-phase binding assay, Vitronectin coated; read-out: αvβ3, IC50. The method, then:
(§1) The activity and selectivity of integrin ligands were determined by a solid-phase binding assay according to the previously reported protocols using coated extracellular matrix proteins and soluble integrins: Fibronectin (Fn) for α5β1, latent activating protein (LAP) for αvβ6 and αvβ8, Vitronectin (Vn) for αvβ3 and αvβ5, Fibrinogen (Fbg) for aIIbβ3.

Test [5] addresses T3, αIIbβ3 (Homo sapiens, UniProt P05106+P08514).
T3 construct: using coated extracellular matrix proteins and soluble integrins
Nature of the test: Solid-phase integrin binding assay, αIIbβ3 (coated Fibrinogen). To be noted: solid-phase binding assay, Fibrinogen coated; read-out: αIIbβ3, IC50. The method, then: as §1

Test [6] concerns the target T4, αvβ5 (Homo sapiens, UniProt P06756+P18084).
T4 construct: using coated extracellular matrix proteins and soluble integrins
The test can be described thus: Solid-phase integrin binding assay, αvβ5 (coated Vitronectin). To be noted: solid-phase binding assay, Vitronectin coated; read-out: αvβ5, IC50. On the procedure:
as §1

The target in test [7] is T1, αvβ6. Nature of the test: Solid-phase integrin binding assay, αvβ6 (coated LAP, soluble integrin). More on the design: using coated extracellular matrix proteins and soluble integrins. On the procedure: as §1
Test [8] deals with T5, integrin αvβ8 (soluble integrin) (UniProt P06756 31-992; P26012 43-684).
T5 construct: Only 'soluble integrins' is said
T5 sequence (P06756 31-992, chain 1 of 2): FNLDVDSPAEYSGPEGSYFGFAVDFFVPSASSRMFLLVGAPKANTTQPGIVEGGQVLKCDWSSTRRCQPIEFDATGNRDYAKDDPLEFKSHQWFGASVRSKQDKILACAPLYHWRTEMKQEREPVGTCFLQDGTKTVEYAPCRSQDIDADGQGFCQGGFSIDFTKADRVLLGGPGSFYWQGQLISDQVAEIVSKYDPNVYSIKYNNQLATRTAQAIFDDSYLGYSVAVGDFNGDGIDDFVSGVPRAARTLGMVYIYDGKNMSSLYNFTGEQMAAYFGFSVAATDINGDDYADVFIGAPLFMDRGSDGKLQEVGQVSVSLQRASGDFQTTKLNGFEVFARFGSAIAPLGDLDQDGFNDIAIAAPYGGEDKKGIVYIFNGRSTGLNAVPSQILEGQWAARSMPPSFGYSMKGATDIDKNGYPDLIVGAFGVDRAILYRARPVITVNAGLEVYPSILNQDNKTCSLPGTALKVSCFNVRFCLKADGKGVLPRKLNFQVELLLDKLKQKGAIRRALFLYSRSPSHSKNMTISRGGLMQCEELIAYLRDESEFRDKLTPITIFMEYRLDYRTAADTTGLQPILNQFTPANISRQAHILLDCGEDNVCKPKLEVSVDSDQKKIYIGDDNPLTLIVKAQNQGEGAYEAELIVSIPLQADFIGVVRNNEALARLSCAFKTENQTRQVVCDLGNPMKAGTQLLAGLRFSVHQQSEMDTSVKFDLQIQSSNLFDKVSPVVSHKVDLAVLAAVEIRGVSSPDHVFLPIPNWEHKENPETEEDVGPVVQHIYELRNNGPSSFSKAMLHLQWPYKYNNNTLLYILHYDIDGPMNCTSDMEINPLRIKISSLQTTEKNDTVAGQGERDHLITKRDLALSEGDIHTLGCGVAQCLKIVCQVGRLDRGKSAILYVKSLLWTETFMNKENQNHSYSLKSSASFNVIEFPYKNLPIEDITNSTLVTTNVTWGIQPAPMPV
T5 sequence (P26012 43-684, chain 2 of 2): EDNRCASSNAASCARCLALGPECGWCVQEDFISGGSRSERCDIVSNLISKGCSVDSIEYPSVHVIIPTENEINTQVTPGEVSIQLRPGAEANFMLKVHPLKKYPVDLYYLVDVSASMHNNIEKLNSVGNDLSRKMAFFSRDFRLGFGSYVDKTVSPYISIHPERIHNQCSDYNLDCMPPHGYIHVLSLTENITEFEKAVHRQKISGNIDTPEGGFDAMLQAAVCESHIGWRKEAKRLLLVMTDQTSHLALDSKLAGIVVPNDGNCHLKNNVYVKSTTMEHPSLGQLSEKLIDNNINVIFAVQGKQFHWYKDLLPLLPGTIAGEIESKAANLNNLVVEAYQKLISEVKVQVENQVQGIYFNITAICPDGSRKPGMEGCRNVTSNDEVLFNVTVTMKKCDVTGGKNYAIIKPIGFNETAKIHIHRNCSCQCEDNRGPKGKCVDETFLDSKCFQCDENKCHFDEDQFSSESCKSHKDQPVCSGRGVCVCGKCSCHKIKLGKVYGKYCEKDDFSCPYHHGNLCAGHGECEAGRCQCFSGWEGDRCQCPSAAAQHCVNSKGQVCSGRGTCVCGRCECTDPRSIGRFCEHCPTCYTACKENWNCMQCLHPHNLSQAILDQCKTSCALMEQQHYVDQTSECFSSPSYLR
Nature of the test: solid-phase binding assay, competition; coated LAP, soluble αvβ8.

Test [9] addresses T6, integrin αvβ3 (soluble integrin) (UniProt P06756 31-992; P05106 27-718).
T6 construct: Only 'soluble integrins' is said
Nature of the test: solid-phase binding assay, competition; coated vitronectin, soluble αvβ3.

In test [10] the target is T7, integrin α5β1 (soluble integrin) (UniProt P08648 42-995; P05556 21-728).
T7 construct: Only 'soluble integrins' is said
T7 sequence (P08648 42-995, chain 1 of 2): as the sequence (P08648 42-995, chain 1 of 2) above
T7 sequence (P05556 21-728, chain 2 of 2): as the sequence (P05556 21-728, chain 2 of 2, further chain) above
Nature of the test: solid-phase binding assay, competition; coated fibronectin, soluble α5β1.

For test [11], the target named is T6, integrin αvβ3 (soluble integrin). The test can be described thus: solid-phase binding assay, competition; coated vitronectin, soluble αvβ3. This is another data set of the same source.
The target of test [12] is T8, integrin αvβ6 (soluble integrin) (UniProt P06756 31-992; P18564 22-707).
T8 construct: Only 'soluble integrins' is said
T8 sequence (P06756 31-992, chain 1 of 2): as the sequence (P06756 31-992, chain 1 of 2) above
T8 sequence (P18564 22-707, chain 2 of 2): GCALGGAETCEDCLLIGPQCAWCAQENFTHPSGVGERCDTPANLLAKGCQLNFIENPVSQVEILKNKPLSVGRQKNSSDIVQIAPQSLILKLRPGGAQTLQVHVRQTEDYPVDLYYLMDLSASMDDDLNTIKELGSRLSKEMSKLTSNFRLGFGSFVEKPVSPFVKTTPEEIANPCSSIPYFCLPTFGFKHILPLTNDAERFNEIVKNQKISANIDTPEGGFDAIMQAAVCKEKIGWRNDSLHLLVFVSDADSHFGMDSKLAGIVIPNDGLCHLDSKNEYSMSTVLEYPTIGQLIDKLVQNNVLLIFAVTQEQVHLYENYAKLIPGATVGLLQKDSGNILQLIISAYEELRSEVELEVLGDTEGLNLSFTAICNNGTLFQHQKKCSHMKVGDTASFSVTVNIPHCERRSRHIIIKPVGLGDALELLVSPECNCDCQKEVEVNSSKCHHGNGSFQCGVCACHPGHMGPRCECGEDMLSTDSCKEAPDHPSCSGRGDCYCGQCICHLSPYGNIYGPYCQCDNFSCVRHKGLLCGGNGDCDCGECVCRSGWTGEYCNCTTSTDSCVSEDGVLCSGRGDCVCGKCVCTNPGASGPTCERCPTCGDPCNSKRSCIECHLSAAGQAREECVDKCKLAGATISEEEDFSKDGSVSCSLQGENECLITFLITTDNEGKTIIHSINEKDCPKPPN
The test can be described thus: solid-phase binding assay, competition; coated LAP, soluble αvβ6.

The target in test [13] is T6, integrin αvβ3 (soluble integrin). The test can be described thus: ratio of IC50s αvβ6:αvβ3, printed the other way round (6.1 for αvβ6 to 1 for αvβ3).
The target in test [14] is T8, integrin αvβ6 (soluble integrin). The test can be described thus: solid-phase binding assay, internal standard; coated LAP, soluble αvβ6.
The target of test [15] is T5, integrin αvβ8 (soluble integrin). The test can be described thus: solid-phase binding assay, internal standard; coated LAP, soluble αvβ8.

Like-named read-outs stand apart in the source and are kept apart here. Square brackets hold non-standard residues; d marks the D form. Side chains are listed from the residue outwards. Peptide text beside a SMILES is read from it. Abu = CC[C@H](N)C(=O)O; Cy5.5 = Cyanine-5.5; Ahx = NCCCCCC(=O)O; βAla = NCCC(=O)O A value given as a limit tells only on which side of the number the result lay.

T6 sequence (P06756 31-992, chain 1 of 2): as the sequence (P06756 31-992, chain 1 of 2) above
T6 sequence (P05106 27-718, chain 2 of 2): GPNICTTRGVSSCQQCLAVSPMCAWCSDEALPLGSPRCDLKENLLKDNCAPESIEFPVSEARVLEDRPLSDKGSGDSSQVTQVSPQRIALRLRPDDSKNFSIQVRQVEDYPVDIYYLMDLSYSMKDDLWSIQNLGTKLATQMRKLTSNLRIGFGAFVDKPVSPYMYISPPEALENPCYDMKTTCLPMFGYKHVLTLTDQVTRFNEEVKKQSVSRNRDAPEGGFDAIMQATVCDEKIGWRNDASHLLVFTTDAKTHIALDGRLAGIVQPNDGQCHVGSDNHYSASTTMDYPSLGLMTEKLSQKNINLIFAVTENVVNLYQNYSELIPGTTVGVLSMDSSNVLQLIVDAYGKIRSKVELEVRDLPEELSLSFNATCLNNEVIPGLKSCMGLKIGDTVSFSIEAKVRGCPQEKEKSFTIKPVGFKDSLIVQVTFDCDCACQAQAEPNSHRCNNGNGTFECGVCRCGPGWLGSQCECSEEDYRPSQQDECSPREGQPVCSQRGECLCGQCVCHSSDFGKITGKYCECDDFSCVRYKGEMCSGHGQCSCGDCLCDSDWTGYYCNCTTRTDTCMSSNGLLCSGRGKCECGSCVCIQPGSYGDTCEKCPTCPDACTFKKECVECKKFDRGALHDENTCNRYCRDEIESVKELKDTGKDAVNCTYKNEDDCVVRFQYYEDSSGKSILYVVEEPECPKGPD
T2 sequence (P06756 31-992 limits assumed): as the sequence (P06756 31-992, chain 1 of 2) above
T2 sequence (P05106 27-718 limits assumed): as the sequence (P05106 27-718, chain 2 of 2) above

Turning to `CC(C)C[C@@H]1NC(=O)[C@H](CC(=O)O)NC(=O)CNC(=O)[C@H](CCCNC(=N)N)NC(=O)[C@H](Cc2ccccc2)NC(=O)[C@H](CCCCN)N(C)C(=O)[C@H]2CCCN2C(=O)[C@H](Cc2ccccc2)NC(=O)[C@H](C)NC1=O` [Compound 18, F R G D L A F p (NMe)K], the “binding competition: fluorescence signal intensity of 18-Cy5.5 after pre-incubation” value in test [1] (10-fold molar excess of unlabeled analogue for 1 h at r.t. prior to 18-Cy5.5) is on record as “strong reduction in fluorescence signal intensity”.
For the molecule Cilengitide, c(-RGDf(NMe)V-) (peptide), the IC50 (in general, the point on the concentration scale where inhibition reaches its midpoint) in [2] lay in the range of 1 to 8 nM.
Regarding “cyclo(RTDLdALR-Abu-Abu) (cyclo(RTDL[dD]ALR[Abu][Abu]); SMILES CC[C@@H]1NC(=O)[C@H](CCCNC(=N)N)NC(=O)[C@H](CC(C)C)NC(=O)[C@H](C)NC(=O)[C@@H](CC(=O)O)NC(=O)[C@H](CC(C)C)NC(=O)[C@H](CC(=O)O)NC(=O)[C@H]([C@@H](C)O)NC(=O)[C@H](CCCNC(=N)N)NC(=O)[C@H](CC)NC1=O)”, the IC50 in [3] is ~1 nM.
“cycl(R^betaADfK)-ahx-Cy5.5 (cyclo(R[βAla]D[dF]K([Ahx-Cy5.5]))) [reference compound]”: the “fluorescence signal intensity on cells” value in test [1] (fixed HN cells, conjugate 10 M, 1 h at r.t.) is “did not result in fluorescence signal intensity”.
Regarding `CC(C)C[C@@H]1NC(=O)[C@H](CC(=O)O)NC(=O)CNC(=O)[C@H](CCCNC(=N)N)NC(=O)[C@H](Cc2ccccc2)NC(=O)[C@@H]2CCCN2C(=O)[C@H]2CCCN2C(=O)[C@H](CC(C)C)NC(=O)[C@H](C)NC1=O` [Compound 12, F R G D L A L p P] (cyclo(FRGDLAL[dP]P)), the IC50 in [4] is > 1000 nM; in test [5], > 1000 nM; in [6], > 1000 nM; in test [7], 1.25 nM.

B1: Compound 4, cyclic peptide A R G D L A L p P (peptide)
peptide: cyclo(ARGDLAL[dP]P)
SMILES: CC(C)C[C@@H]1NC(=O)[C@H](CC(=O)O)NC(=O)CNC(=O)[C@H](CCCNC(=N)N)NC(=O)[C@H](C)NC(=O)[C@@H]2CCCN2C(=O)[C@H]2CCCN2C(=O)[C@H](CC(C)C)NC(=O)[C@H](C)NC1=O
notes: also called Cpd
For B1, the IC50 was found to be 42.9 nM in test [8], 106 nM in test [9], 266 nM in [10] and 106 nM in [11].

B2: Compound 11, cyclic peptide A R G D L A K p P (peptide)
peptide: cyclo(ARGDLAK[dP]P)
SMILES: CC(C)C[C@@H]1NC(=O)[C@H](CC(=O)O)NC(=O)CNC(=O)[C@H](CCCNC(=N)N)NC(=O)[C@H](C)NC(=O)[C@@H]2CCCN2C(=O)[C@H]2CCCN2C(=O)[C@H](CCCCN)NC(=O)[C@H](C)NC1=O
notes: also called Cpd; 11
For the molecule B2, the IC50 in test [8] is 49.3 nM; in test [9] it was 302 nM; in test [10], 831 nM; in test [11], 302 nM.

B3: Compound 10, cyclic peptide A R G D L A F p P (peptide)
peptide: cyclo(ARGDLAF[dP]P)
SMILES: CC(C)C[C@@H]1NC(=O)[C@H](CC(=O)O)NC(=O)CNC(=O)[C@H](CCCNC(=N)N)NC(=O)[C@H](C)NC(=O)[C@@H]2CCCN2C(=O)[C@H]2CCCN2C(=O)[C@H](Cc2ccccc2)NC(=O)[C@H](C)NC1=O
notes: also called Cpd; 10
B3: the IC50 in test [8] turned out to be 10.4 nM; in test [9], 104 nM; in test [10], 38.4 nM; in test [11] it was 104 nM.

B4: Compound 8, cyclic peptide A R G D L D L p P (peptide)
peptide: cyclo(ARGDLDL[dP]P)
SMILES: CC(C)C[C@@H]1NC(=O)[C@H](CC(=O)O)NC(=O)CNC(=O)[C@H](CCCNC(=N)N)NC(=O)[C@H](C)NC(=O)[C@@H]2CCCN2C(=O)[C@H]2CCCN2C(=O)[C@H](CC(C)C)NC(=O)[C@H](CC(=O)O)NC1=O
notes: Comparative compound (*)
Turning to B4, the figures for the IC50 in test [12] and in test [9] were 14.7 nM and 2.4 nM, respectively. For the same molecule, the Ratio in test [13] stood at 6.1.

B5: Compound 1, cyclic peptide A R G D L A A L p P (peptide)
peptide: cyclo(ARGDLAAL[dP]P)
notes: Comparative compound (*); also called Cpd
Take B5: the IC50 in test [8] came out at 115 nM; in test [9] it was 76.7 nM; in [10], 454 nM; in test [11], 76.7 nM.

B6: linear peptide RTDLDSLRT (peptide)
peptide: RTDLDSLRT
notes: also called control peptide (plasma stability)
With B6, the IC50 lay in the range of 6 to 33 nM in [14] and 8 to 100 nM in test [15].
